According to patent publication US20240197839A1, “Recombinant Human Acid Alpha-Glucosidase and Uses Thereof” (Amicus Therapeutics, Inc., priority 2021, published 2024):
Marks after values point to notes of the source that are not given here.

Legend:
CIMPR [1] = biological target: T1, CIMPR (Homo sapiens, UniProt P11717); test: CIMPR affinity chromatography (bound vs unbound rhGAA by GAA activity); type: binding; conditions: CIMPR affinity column, fraction of total enzyme by GAA activity
Description: Multiple batches of the rhGAA according to the disclosure were produced in shake flasks and in perfusion bioreactors using CHO cell line GA-ATB200, the product of which is referred to as “ATB200.” Weak anion exchange (“WAX”) liquid chromatography was used to fractionate ATB200 rhGAA according to terminal phosphate and sialic acid. Elution profiles were generated by eluting the ERT with increasing amount of salt. The profiles were monitored by UV (A280 nm).
To evaluate the ability of the conventional rhGAAs in MYOZYME® and LUMIZYME® to interact with the CIMPR, the two conventional rhGAA preparations were injected onto a CIMPR affinity column (which binds rhGAA having M6P groups) and the flow through collected. The bound material was eluted with a free M6 gradient. Fractions were collected in 96-well plate and GAA activity assayed by 4MU-α-glucosidase substrate. The relative amounts of unbound (flow through) and bound (M6P eluted) rhGAA were determined based on GAA activity and reported as the fraction of total enzyme. […] Indeed, only 27% of the rhGAA in MYOZYME® and 22% of the rhGAA in LUMIZYME® contained M6P that can be productive to target it to the CIMPR on muscle cells.

Gaa KO mice = test: single fiber analysis (LAMP1/LC3 co-immunofluorescence, white gastrocnemius); type: in vivo
Description: FIG. 17 depicts co-immunofluorescent staining of LAMP1 (green) (see for example, “B”) and LC3 (red) (see, for example, “A”) in single fibers isolated from the white gastrocnemius of Gaa KO mice treated with a vehicle, alglucosidase alfa, or ATB200. “C” depicts clearance of autophagic debris and absence of enlarged lysosome. A minimum of 30 fibers were examined from each animal.
As a result, a significant portion of muscle fibers analyzed (36-60%) from ATB200-treated mice appeared normal or near-normal.

[2] = thermostability assay using SYPRO Orange; type: physicochemical
Protocol: The stability of ATB200 in acidic or neutral pH buffers was evaluated in a thermostability assay using SYPRO Orange, as the fluorescence of the dye increases when proteins denature. […] As summarized in Table 6, the addition of AT2221 increased the melting temperature (Tm) of ATB200 by nearly 10° C.

CIMPR [3] = biological target: T1, CIMPR; test: CIMPR plate binding assay
Protocol: In addition to having a greater percentage of rhGAA that can bind to the CIMPR, it is important to understand the quality of that interaction. LUMIZYME® and ATB200 receptor binding was determined using a CIMPR plate binding assay. Briefly, CIMPR-coated plates were used to capture GAA. Varying concentrations of rhGAA were applied to the immobilized receptor and unbound rhGAA was washed off. The amount of remaining rhGAA was determined by GAA activity. […] For LUMIZYME®, there is on average only 10% of molecules having a bis-phosphorylated N-glycan. In contrast, on average every rhGAA molecule in ATB200 has at least one bis-phosphorylated N-glycan.
N-glycan analysis via MALDI-TOF mass spectrometry confirmed that on average each ATB200 molecule contains at least one natural bis-M6P N-glycan structure.

[4] = system: normal and Pompe fibroblast cell lines; test: cellular uptake of rhGAA in fibroblasts (internalized GAA by 4MU-α-Glucoside hydrolysis); type: cell-based
Protocol: The relative cellular uptake of ATB200 and LUMIZYME® rhGAA were compared using normal and Pompe fibroblast cell lines. Comparisons involved 5-100 nM of ATB200 according to the disclosure with 10-500 nM conventional rhGAA product LUMIZYME®. After 16-hr incubation, external rhGAA was inactivated with TRIS base and cells were washed 3-times with PBS prior to harvest. Internalized GAA measured by 4MU-α-Glucoside hydrolysis and was graphed relative to total cellular protein and the results appear in FIGS. 11A-11C.

T1 sequence (P11717 41-2491, species assumed): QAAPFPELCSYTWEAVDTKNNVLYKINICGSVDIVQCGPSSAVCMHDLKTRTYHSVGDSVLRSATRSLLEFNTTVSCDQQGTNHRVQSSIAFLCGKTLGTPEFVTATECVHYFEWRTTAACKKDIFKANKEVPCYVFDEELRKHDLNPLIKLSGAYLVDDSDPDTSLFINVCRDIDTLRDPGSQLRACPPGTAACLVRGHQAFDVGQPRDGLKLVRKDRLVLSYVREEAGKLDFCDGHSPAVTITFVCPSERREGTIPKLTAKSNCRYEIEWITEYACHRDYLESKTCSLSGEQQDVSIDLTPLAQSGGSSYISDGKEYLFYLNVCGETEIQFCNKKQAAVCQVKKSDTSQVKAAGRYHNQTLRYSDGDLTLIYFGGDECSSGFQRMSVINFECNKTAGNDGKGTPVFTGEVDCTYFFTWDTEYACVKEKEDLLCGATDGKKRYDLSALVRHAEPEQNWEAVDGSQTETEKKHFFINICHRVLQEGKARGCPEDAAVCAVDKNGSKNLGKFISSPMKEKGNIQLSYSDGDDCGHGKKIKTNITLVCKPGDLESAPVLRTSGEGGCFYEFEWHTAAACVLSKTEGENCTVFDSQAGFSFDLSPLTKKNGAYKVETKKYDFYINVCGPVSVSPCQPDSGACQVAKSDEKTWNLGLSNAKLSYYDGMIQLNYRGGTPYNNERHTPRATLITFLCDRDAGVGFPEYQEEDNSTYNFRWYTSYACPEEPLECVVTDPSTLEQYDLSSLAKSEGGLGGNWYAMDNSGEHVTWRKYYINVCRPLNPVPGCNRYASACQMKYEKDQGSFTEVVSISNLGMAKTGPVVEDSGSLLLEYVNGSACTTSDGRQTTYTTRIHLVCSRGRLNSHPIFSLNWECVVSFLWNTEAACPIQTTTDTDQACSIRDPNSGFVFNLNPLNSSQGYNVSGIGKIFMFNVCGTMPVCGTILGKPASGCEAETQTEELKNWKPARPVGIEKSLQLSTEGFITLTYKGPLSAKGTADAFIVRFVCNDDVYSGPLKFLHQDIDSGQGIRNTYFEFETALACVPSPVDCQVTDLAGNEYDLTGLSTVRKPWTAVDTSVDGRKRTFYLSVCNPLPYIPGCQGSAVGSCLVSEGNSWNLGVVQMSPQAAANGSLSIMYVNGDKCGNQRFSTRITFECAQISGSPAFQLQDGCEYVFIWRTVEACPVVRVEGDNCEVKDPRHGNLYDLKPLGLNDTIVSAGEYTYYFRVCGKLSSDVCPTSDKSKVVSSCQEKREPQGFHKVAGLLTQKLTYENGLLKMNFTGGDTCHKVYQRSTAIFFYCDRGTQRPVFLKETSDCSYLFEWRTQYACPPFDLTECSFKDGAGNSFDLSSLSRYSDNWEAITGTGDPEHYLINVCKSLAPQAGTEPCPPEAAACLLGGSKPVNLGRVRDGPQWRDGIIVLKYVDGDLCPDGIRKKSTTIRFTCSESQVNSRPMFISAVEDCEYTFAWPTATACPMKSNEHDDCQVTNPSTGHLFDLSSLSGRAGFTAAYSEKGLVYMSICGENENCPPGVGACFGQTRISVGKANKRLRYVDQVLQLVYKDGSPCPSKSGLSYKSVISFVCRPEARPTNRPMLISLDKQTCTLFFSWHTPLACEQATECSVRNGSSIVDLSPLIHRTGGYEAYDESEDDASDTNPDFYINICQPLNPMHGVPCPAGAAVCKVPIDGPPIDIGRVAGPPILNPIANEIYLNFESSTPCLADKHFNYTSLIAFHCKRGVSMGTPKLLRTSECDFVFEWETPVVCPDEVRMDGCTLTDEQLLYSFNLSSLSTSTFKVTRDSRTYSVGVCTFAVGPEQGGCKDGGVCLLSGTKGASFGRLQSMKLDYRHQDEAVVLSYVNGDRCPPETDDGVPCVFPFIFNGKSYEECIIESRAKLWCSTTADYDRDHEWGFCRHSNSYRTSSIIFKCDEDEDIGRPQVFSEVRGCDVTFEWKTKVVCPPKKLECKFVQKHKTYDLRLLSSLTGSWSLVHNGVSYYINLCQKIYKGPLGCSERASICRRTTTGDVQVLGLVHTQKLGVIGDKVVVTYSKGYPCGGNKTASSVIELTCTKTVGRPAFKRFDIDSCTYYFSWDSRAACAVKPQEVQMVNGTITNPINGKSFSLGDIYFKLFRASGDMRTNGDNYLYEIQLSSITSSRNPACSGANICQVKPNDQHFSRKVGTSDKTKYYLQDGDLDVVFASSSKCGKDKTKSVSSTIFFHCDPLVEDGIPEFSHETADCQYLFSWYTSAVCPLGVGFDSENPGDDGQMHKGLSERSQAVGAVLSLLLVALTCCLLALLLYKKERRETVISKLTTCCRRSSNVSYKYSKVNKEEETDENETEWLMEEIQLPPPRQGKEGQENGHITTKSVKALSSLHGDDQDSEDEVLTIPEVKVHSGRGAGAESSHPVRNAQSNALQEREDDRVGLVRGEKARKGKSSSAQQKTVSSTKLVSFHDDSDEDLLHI

Compound: MYOZYME®: conventional rhGAA product containing alglucosidase alfa, marketed by Genzyme
- rhGAA that did not bind to the CIMPR (CIMPR [1]; flow through): 73%
- rhGAA that binds to the CIMPR (M6P eluted) (CIMPR [1]): 27%
- lysosomes and autophagic buildup compared to vehicle-treated mice (Gaa KO mice; single fibers, FIG. 17): did not show any significant difference

Compound: ATB200: recombinant human acid α-glucosidase with a high content of N-glycans bearing mono-M6P and bis-M6P, produced from a GA-ATB200 CHO cell line
- Tm ([2]; pH 5.2): 67.3 °C
- Tm ([2]; pH 7.4): 56.2 °C
- Tm ([2]; pH 7.4 + 10 μM AT2221): 61.6 °C
- Tm ([2]; pH 7.4 + 30 μM AT2221): 62.9 °C
- Tm ([2]; pH 7.4 + 100 μM AT2221): 66.0 °C
- Fibers with Autophagy Buildup (Gaa KO mice; Gaa KO mice): 40-64%*
- area / extent of autophagic buildup (Gaa KO mice; single fibers, compared to Vehicle- or alglucosidase alfa-treated group): reduced to various degrees
- binding to CIMPR compared with LUMIZYME (CIMPR [3]; CIMPR-coated plates, varying rhGAA concentrations (FIG. 10A)): significantly better
- Kd (CIMPR [3]; M6P receptor plate binding assays): 2 to 4 nM
- internalization into normal and Pompe fibroblast cells compared with LUMIZYME ([4]; 16-hr incubation, FIGS. 11A-11B): internalized to a greater degree
- concentration that saturates cellular receptors ([4]; 16-hr incubation, normal and Pompe fibroblasts): about 20 nM
- uptake efficiency constant (Kuptake) ([4]; extrapolated from uptake curves, FIG. 11C): 2-3 nm

Compound: CCCCN1C[C@H](O)[C@@H](O)[C@H](O)[C@H]1CO [AT2221, (2R,3R,4R,5S)-1-butyl-2-(hydroxymethyl)piperidine-3,4,5-triol]
- increase of the melting temperature (Tm) of ATB200 by addition of AT2221 ([2]; pH 7.4): ~10 °C
- stabilization of ATB200 by AT2221 ([2]; pH 7.4, FIG. 12): stabilized ATB200 at pH 7.4 in a concentration-dependent manner
